From US20260217813A1 (published 2026)

T1: IL-12 (Human IL12 (His Tag)), Sino Biological Cat. No. CT-050-H08H-20 (human, UniProt P29460 23-328; P29459 23-219)
T1 construct: Bought His-tagged p35/p40 heterodimer
T1 sequence (looked up) 1: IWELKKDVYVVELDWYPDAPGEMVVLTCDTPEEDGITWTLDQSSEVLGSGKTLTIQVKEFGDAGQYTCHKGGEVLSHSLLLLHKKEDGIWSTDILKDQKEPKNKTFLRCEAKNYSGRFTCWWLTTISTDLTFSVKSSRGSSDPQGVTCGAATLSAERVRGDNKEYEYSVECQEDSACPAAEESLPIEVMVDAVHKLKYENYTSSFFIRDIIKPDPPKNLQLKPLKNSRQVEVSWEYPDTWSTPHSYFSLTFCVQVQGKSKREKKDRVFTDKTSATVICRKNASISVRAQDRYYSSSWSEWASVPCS
T1 sequence (looked up) 2: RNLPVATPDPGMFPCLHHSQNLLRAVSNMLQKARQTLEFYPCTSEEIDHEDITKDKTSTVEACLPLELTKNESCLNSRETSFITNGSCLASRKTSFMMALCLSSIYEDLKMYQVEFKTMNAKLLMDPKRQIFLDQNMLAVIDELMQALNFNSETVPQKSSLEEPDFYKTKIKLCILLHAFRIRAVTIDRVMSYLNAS

T2: human IL-23 (IL-23-His-Biotin, Akesobio, 20161209) (human, UniProt Q9NPF7 20-189; P29460 23-328)
T2 construct: His-tagged and biotinylated; also called human IL23-His-Biotin
T2 sequence (looked up) 1: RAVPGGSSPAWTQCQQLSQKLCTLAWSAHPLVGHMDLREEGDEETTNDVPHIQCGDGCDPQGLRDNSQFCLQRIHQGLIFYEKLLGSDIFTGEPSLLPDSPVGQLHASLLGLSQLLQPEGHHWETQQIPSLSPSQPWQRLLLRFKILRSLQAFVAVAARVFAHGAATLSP
T2 sequence (looked up) 2: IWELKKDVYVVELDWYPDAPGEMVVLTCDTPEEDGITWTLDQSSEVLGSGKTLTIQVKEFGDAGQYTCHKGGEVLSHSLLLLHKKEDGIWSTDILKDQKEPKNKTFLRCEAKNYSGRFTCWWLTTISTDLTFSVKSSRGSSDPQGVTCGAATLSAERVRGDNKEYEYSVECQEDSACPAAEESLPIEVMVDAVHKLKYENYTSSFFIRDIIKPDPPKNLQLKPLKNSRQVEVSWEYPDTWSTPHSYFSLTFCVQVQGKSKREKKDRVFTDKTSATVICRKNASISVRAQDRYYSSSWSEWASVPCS


Tests used:
[1] = target: T1, IL-12 (Human IL12 (His Tag)), Sino …; test: FACS competition, IL-12-His 20 nM on 293T-IL-12RB1&IL-23R cells, antibody 10 µg/mL
Description: (§1) 200 μL of 1% PBSA was added into each sample, and the mixture was centrifuged at 700×g for 5 min to discard the supernatant. According to experiment design, correspondingly diluted antibody (highest final concentration of 30 μg/mL, 3-fold dilution, 8 concentrations in total) and human IL-12 (Sino Biological, Cat. No.: CT-050-H08H-20) (final concentration of 20 nM) were mixed at a ratio of 1:1, and a blank control was set. The mixture of antibody and human IL12 was incubated on ice for 30 min and then added to the cell precipitate at 100 μL/sample. The resulting mixture was well mixed and incubated on ice for 60 min. 200 μL of 1% PBSA was added, and the mixture was centrifuged at 700×g for 5 min to discard the supernatant, and then washed twice. Alexa Fluor® 488 anti-His tag antibody (Biolegend, Cat. No.: 652509) was diluted at a ratio of 1:400 and added to each tube at 100 μL. The mixture was well mixed and incubated on ice for 40 min in the absence of light. 200 μL of 1% PBSA was added, and the mixture was centrifuged at 700×g for 5 min to discard the supernatant, and then washed twice. 1% PBSA was added at 200 μL/tube, and the cells were resuspended and transferred to a flow cytometry tube for testing.

[2] = target: T1, IL-12 (Human IL12 (His Tag)), Sino …; test: FACS competition, IL-12-His 20 nM on 293T-IL-12RB1&IL-23R cells, antibody 0.04 µg/mL
Description: as §1

[3] = target: T1, IL-12 (Human IL12 (His Tag)), Sino …; test: FACS competition, IL-12-His 20 nM on 293T-IL-12RB1&IL-23R cells, antibody 0.37 µg/mL
Description: as §1

[4] = target: T1, IL-12 (Human IL12 (His Tag)), Sino …; test: FACS competition, IL-12-His 20 nM on 293T-IL-12RB1&IL-23R cells, antibody 1.11 µg/mL
Description: as §1

[5] = target: T2, human IL-23 (IL-23-His-Biotin, …); test: FACS competition, IL-23-His-Biotin 2 µg/mL on 293T-IL-12RB1&IL-23R cells, antibody 10 µg/mL
Description: (§2) 2.1. […] 200 μL of 1% PBSA was added into each sample, and the mixture was centrifuged at 700×g for 5 min to discard the supernatant. According to experiment design, correspondingly diluted antibody (highest final concentration of 30 μg/mL, 3-fold dilution, 8 concentrations in total) and human IL-23 (IL-23-His-Biotin, Akesobio, 20161209) (final concentration of 2 μg/mL) were mixed at a ratio of 1:1, and a blank control was set. The mixture of antibody and human IL23 was incubated on ice for 30 min and then added to the cell precipitate at 100 μL/sample. The resulting mixture was well mixed and incubated on ice for 60 min. 200 μL of 1% PBSA was added, and the mixture was centrifuged at 700×g for 5 min to discard the supernatant, and then washed twice. FITC Streptavidin (Biolegend, Cat. No.: 405202) was diluted at a ratio of 1:500 and added to each tube at 100 μL. The mixture was well mixed and incubated on ice for 40 min in the absence of light. 200 μL of 1% PBSA was added, and the mixture was centrifuged at 700×g for 5 min to discard the supernatant, and then washed twice. 1% PBSA was added at 200 μL/tube, and the cells were resuspended and transferred to a flow cytometry tube for testing.

[6] = target: T2, human IL-23 (IL-23-His-Biotin, …); test: FACS competition, IL-23-His-Biotin 2 µg/mL on 293T-IL-12RB1&IL-23R cells, antibody 0.04 µg/mL
Description: as §2

[7] = target: T2, human IL-23 (IL-23-His-Biotin, …); test: FACS competition, IL-23-His-Biotin 2 µg/mL on 293T-IL-12RB1&IL-23R cells, antibody 0.12 µg/mL
Description: as §2

[8] = target: T2, human IL-23 (IL-23-His-Biotin, …); test: FACS competition, IL-23-His-Biotin 2 µg/mL on 293T-IL-12RB1&IL-23R cells, antibody 0.37 µg/mL
Description: as §2

Row | Binder | MFI [1] | MFI [2] | MFI [3] | MFI [4] | MFI [5] | MFI [6] | MFI [7] | MFI [8]
1 | H5L9 (antibody, human IgG1, kappa, V domains shown, Humanized anti-human IL-12/IL-23 p40 antibody; IgG1 (P01857) / kappa (P01834) constant regions) VH: EVQLVQSGAEVKKPGESLKISCQSSGYSFTTYWIGWVRQMPGQGLEWIGIMSPVDSDIRYNPMFRGQVTMSVDKSSSTAYLQWSSLKASDTAMYYCARRRPGQGYFDFWGQGTMVTVSS VL: DIQMTQSPSSLSASVGDRVTITCKASQNVGSWLAWYQQKPGKAPKSLIYSASSRQSGVPSRFSGSGSGTDFTLTISSLQPEDFATYYCQQYDIYPFTFGQGTKLEIKR | 134 | 158 | 159 | 157 | 136 | 221 | 217 | 206
2 | H5L10 (antibody, human IgG1, kappa, V domains shown, IgG1/kappa) VH: EVQLVQSGAEVKKPGESLKISCQSSGYSFTTYWIGWVRQMPGQGLEWIGIMSPVDSDIRYNPMFRGQVTMSVDKSSSTAYLQWSSLKASDTAMYYCARRRPGQGYFDFWGQGTMVTVSS VL: EIVLTQSPATLSASPGERATISCRASQSVGSWLAWYQQKPGQAPRSLIYAASNLQSGIPARFSGSGSGTDFTLTISSLEPEDFAVYYCQQYNIYPYTFGQGTRLEIKR | 34.1 | 154 | 87.5 | 44.6 | 12.7 | 230 | 221 | 169
3 | H5L12 (antibody, human IgG1, kappa, V domains shown, IgG1/kappa) VH: EVQLVQSGAEVKKPGESLKISCQSSGYSFTTYWIGWVRQMPGQGLEWIGIMSPVDSDIRYNPMFRGQVTMSVDKSSSTAYLQWSSLKASDTAMYYCARRRPGQGYFDFWGQGTMVTVSS VL: EIVLTQSPATLSASPGERATISCRASQSVSSWLAWYQQKPGQAPRSLIYAASNRQSGIPARFSGSGSGTDFTLTISSLEPEDFAVYYCQQYNIYPYTFGQGTRLEIKR | 32.4 | 149 | 86.6 | 38.5 | 12.7 | 234 | 211 | 177

The next lines start with the values.

Row | MFI [1] | MFI [2] | MFI [3] | MFI [4] | MFI [5] | MFI [6] | MFI [7] | MFI [8] | Binder
4 | 31 | 150 | 95.7 | 31.9 | 11.5 | 216 | 211 | 186 | ustekinumab (trade name Stelara) (antibody, V domains shown) VH: EVQLVQSGAEVKKPGESLKISCKGSGYSFTTYWLGWVRQMPGKGLDWIGIMSPVDSDIRYSPSFQGQVTMSVDKSITTAYLQWNSLKASDTAMYYCARRRPGQGYFDFWGQGTLVTVSS VL: DIQMTQSPSSLSASVGDRVTITCRASQGISSWLAWYQQKPEKAPKSLIYAASSLQSGVPSRFSGSGSGTDFTLTISSLQPEDFATYYCQQYNIYPYTFGQGTKLEIK
5 | 33.9 | 151 | 103 | 54.3 | 14.5 | 224 | 219 | 179 | H5L11 (antibody, human IgG1, kappa, V domains shown, IgG1/kappa) VH: EVQLVQSGAEVKKPGESLKISCQSSGYSFTTYWIGWVRQMPGQGLEWIGIMSPVDSDIRYNPMFRGQVTMSVDKSSSTAYLQWSSLKASDTAMYYCARRRPGQGYFDFWGQGTMVTVSS VL: EIVLTQSPATLSASPGERATISCRASQSVSSWLAWYQQKPGQAPRSLIYSASNLQSGIPARFSGSGSGTDFTLTISSLEPEDFAVYYCQQYNIYPYTFGQGTRLEIKR
6 | 46.3 | 155 | 113 | 66 | 16.7 | 216 | 203 | 179 | H5L14 (antibody, human IgG1, kappa, V domains shown, IgG1/kappa) VH: EVQLVQSGAEVKKPGESLKISCQSSGYSFTTYWIGWVRQMPGQGLEWIGIMSPVDSDIRYNPMFRGQVTMSVDKSSSTAYLQWSSLKASDTAMYYCARRRPGQGYFDFWGQGTMVTVSS VL: EIVLTQSPATLSASPGERATISCRASQSVSSWLAWYQQKPGQAPRSLIYAASNLQSGIPARFSGSGSGTDFTLTISSLEPEDFAVYYCQQYNIYPFTFGQGTRLEIKR
